Laboratory results from publication PMC5460766.

Legend:
Assay in all cases: ITC
[1] = target: NDD(MlnD)+MlnKR4 (Bacillus amyloliquefaciens FZB42) (UniProt A7Z473)
[2] = target: NDD(MlnG)+MlnKR9 (Bacillus amyloliquefaciens FZB42) (UniProt A7Z476)
[3] = target: NDD(MlnE)+MlnKR6 (Bacillus amyloliquefaciens FZB42) (UniProt A7Z474)

Which Kd [1] does the source give for “MlnDH4+CDD(MlnC) (from UniProt A7Z472 1-1590) (domain or fragment)” here?
The Kd was 1.8 µM.

How did the Kd [2] turn out when “MlnDH9+CDD(MlnF) (from UniProt A7Z475 1-1903) (domain or fragment)” was run?
The Kd was 9 µM.

For “MlnKS6+CDD(MlnD) (from UniProt A7Z473 1-2902) (domain or fragment)”, which Kd [3] is on record?
The Kd was 0.8 µM.
